Blank lines part the entries; values can stand above or below the binder they belong to.
Tests used:
full-length murine PD-L1 = target: T1, full-length murine PD-L1 (murine, UniProt Q9EP73 19-290); assay: IFNg-ELISPOT; TCR-transduced T cells on 293T B2M/CIITA knockout cells transfected with full-length murine PD-L1
T1 construct: whole, on cells; also called mPD-L1; murine homologue of PD-L1

[1] = target: T2, human PD-L1 (Programmed death-ligand 1) (human, UniProt Q9NZQ7 19-290); assay: IFNg-ELISPOT on 293T B2M/CIITA knockout cells transfected with full-length or single-domain PD-L1 constructs; binding inferred from recognition
T2 construct: No signal peptide limits are stated; also called CD274; B7-H1
T2 sequence (Q9NZQ7 19-290 limits assumed): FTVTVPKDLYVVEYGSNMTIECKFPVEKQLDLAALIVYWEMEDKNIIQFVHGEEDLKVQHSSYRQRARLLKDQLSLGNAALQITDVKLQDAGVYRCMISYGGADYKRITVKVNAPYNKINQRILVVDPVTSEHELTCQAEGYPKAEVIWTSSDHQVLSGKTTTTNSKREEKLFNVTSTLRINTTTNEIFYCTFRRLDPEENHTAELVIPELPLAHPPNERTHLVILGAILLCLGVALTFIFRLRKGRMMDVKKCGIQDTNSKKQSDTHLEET

[2] = target: T2, human PD-L1 (Programmed death-ligand 1); assay: IFNg-ELISPOT with TCR-transduced T cells and blocking anti-PD-L1 antibodies; binding inferred from recognition

T1 sequence (Q9EP73 19-290): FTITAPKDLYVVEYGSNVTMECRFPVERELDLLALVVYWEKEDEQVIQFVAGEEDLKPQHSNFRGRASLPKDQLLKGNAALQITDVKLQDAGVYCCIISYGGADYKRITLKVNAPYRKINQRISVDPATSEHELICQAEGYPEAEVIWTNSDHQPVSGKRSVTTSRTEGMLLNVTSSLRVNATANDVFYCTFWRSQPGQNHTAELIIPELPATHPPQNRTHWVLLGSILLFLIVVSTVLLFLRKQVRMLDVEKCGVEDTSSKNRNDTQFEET

binding result (full-length murine PD-L1): no binding
B1: chimerized TCR construct 11C/25 (TCR, V domains shown)
V domain 1: EAQVTQNPRYLITVTGKKLTVTCSQNMNHEYMSWYRQDPGLGLRQIYYSMNVEVTDKGDVPEGYKVSRKEKRNFPLILESPSPNQTSLYFCASSLSPAPPSIWSYNEQFFGPGTRLTVLE
V domain 2: AQSVTQLDSQVPVFEEAPVELRCNYSSSVSVYLFWYVQYPNQGLQLLLKYLSGSTLVKGINGFEAEFNKSQTSFHLRKPSVHISDTAEYFCAVSKLAGRRALTFGSGTRLQVQP
notes: In the assays the TCR stood as an alpha/beta heterodimer on transduced human T cells whose endogenous TCR was knocked out; also called cTCR 11C/25; TCR 11C/25
binding result [1]: binds

binding result (full-length murine PD-L1): no binding
B2: chimerized TCR construct 11C/34 (TCR, V domains shown)
V domain 1: EPEVTQTPSHQVTQMGQEVILRCVPISNHLYFYWYRQILGQKVEFLVSFYNNEISEKSEIFDDQFSVERPDGSNFTLKIRSTKLEDSAMYFCASSLRLGWIPGNEQFFGPGTRLTVLE
V domain 2: AQSVTQPDIHITVSEGASLELRCNYSYGATPYLFWYVQSPGQGLQLLLKYFSGDTLVQGIKGFEAEFKRSQSSFNLRKPSVHWSDAAEYFCAVGFMDSSYKLIFGSGTRLLVRP
notes: In the assays the TCR stood as an alpha/beta heterodimer on transduced human T cells whose endogenous TCR was knocked out; also called cTCR 11C/34; TCR 11C/34
binding result [2]: binds
